Here are results for four sequences from the supplement of paper PMC5998384.

Series [1] relates to HeLa Kyoto. Put plainly: thermal stability score vs G1/S (z-score of summed log2 fold changes over temperatures); higher = more thermally stable than in G1/S.
In series [2] the test system is HeLa Kyoto. The series is described as follows: solubility in G1/S (NP-40 vs SDS abundance) (log2 ratio); higher = more soluble. As to conditions: cell cycle stage: G1/S.
The test system of series [3] is HeLa Kyoto. Put plainly: melting temperature (median over replicates), in situ; higher = more thermally stable.
In series [4] the test system is HeLa Kyoto. The series is described as follows: solubility change mitosis vs G1/S (difference of NP-40 vs SDS log2 ratios) (log2 ratio difference); higher = more soluble in mitosis.
Where [5] appears, read: cell cycle stage: early G1 (4.5 h after nocodazole release).
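Wherever melting temperature (median over replicates), in situ is given: HeLa Kyoto cells synchronized by double thymidine or nocodazole block, proteins quantified by TMT10plex mass spectrometry, three independent biological replicates.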
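Wherever solubility change mitosis vs G1/S (difference of NP-40 vs SDS log2 ratios) is given: synchronized HeLa Kyoto cells (double thymidine block for G1/S, nocodazole release for mitosis), protein amounts in NP-40 versus SDS lysates quantified by mass spectrometry, three biological replicates.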
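Wherever solubility in G1/S (NP-40 vs SDS abundance) is given: HeLa Kyoto cells arrested at G1/S by double thymidine block, proteins quantified by TMT10plex mass spectrometry in mild NP-40 versus SDS extracts, three biological replicates.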
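Wherever thermal stability score vs G1/S (z-score of summed log2 fold changes over temperatures) is given: synchronized HeLa Kyoto cells, proteins quantified by TMT10plex mass spectrometry, three biological replicates, mitosis taken 0.5 h after nocodazole release, G1/S directly after double thymidine block.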

In the case of “MEGGLGRAVCLLTGASRGFGRTLAPLLASLLSPGSVLVLSARNDEALRQLEAELGAERSGLRVVRVPADLGAEAGLQQLLGALRELPRPKGLQRLLLINNAGSLGDVSKGFVDLSDSTQVNNYWALNLTSMLCLTSSVLKAFPDSPGLNRTVVNISSLCALQPFKGWALYCAGKAARDMLFQVLALEEPNVRVLNYAPGPLDTDMQQLARETSVDPDMRKGLQELKAKGKLVDCKVSAQKLLSLLEKDEFKSGAHVDFYDK [SPR]”, the thermal stability score in the series with HeLa Kyoto [1] (setting [5]) is -5.72; in the series with HeLa Kyoto [1] (cell cycle stage: mitosis) it was -2.25. In addition, the “solubility in G1/S (log2)” value with HeLa Kyoto [2] is 0.0864. Moreover, the melting temperature with HeLa Kyoto [3] (cell cycle stage: G1/S) is 53.8 °C; with HeLa Kyoto [3] (cell cycle stage: mitosis), 52.3 °C. In addition, the “solubility change mitosis (log2)” value in the series with HeLa Kyoto [4] is -0.117.
Turning to “MAVARVDAALPPGEGSVVNWSGQGLQKLGPNLPCEADIHTLILDKNQIIKLENLEKCKRLIQLSVANNRLVRMMGVAKLTLLRVLNLPHNSIGCVEGLKELVHLEWLNLAGNNLKAMEQINSCTALQHLDLSDNNISQIGDLSKLVSLKTLLLHGNIITSLRMAPAYLPRSLAILSLAENEIRDLNEISFLASLTELEQLSIMNNPCVMATPSIPGFDYRPYIVSWCLNLRVLDGYVISQKESLKAEWLYSQGKGRAYRPGQHIQLVQYLATVCPLTSTLGLQTAEDAKLEKILSKQRFHQRQLMNQSQNEELSPLVPVETRASLIPEHSSPVQDCQISQESEPVIQVNSWVGINSNDDQLFAVKNNFPASVHTTRYSRNDLHLEDIQTDEDKLNCSLLSSESTFMPVASGLSPLSPTVELRLQGINLGLEDDGVADESVKGLESQVLDKEEEQPLWAANENSVQMMRSEINTEVNEKAGLLPCPEPTIISAILKDDNHSLTFFPESTEQKQSDIKKPENTQPENKETISQATSEKLPMILTQRSVALGQDKVALQKLNDAATKLQACWRGFYARNYNPQAKDVRYEIRLRRMQEHIVCLTDEIRRLRKERDEERIKKFVQEEAFRFLWNQVRSLQVWQQTVDQRLSSWHTDVPPISSTLVPSKHPLFTQSQESSCDQNADWFIASDVAPQEKSLPEFPDSGFHSSLTEQVHSLQHSLDFEKSSTEGSESSIMGNSIDTVRYGKESDLGDVSEEHGEWNKESSNNEQDNSLLEQYLTSVQQLEDADERTNFDTETRDSKLHIACFPVQLDTLSDGASVDESHGISPPLQGEISQTQENSKLNAEVQGQQPECDSTFQLLHVGVTV [CEP97]”, the values for the thermal stability score in the series with HeLa Kyoto [1] (setting [5]) and in the series with HeLa Kyoto [1] (cell cycle stage: mitosis) were 0.503 and 1.24, respectively. The “solubility in G1/S (log2)” value in the series with HeLa Kyoto [2] was 0.0763. In addition, the melting temperature was 49.6 °C in the series with HeLa Kyoto [3] (cell cycle stage: G1/S) and 49.9 °C with HeLa Kyoto [3] (cell cycle stage: mitosis). Further, the “solubility change mitosis (log2)” value in the series with HeLa Kyoto [4] was -0.207.
For “MEATTAGVGRLEEEALRRKERLKALREKTGRKDKEDGEPKTKHLREEEEEGEKHRELRLRNYVPEDEDLKKRRVPQAKPVAVEEKVKEQLEAAKPEPVIEEVDLANLAPRKPDWDLKRDVAKKLEKLKKRTQRAIAELIRERLKGQEDSLASAVDAATEQKTCDSD [CCDC12]”, the thermal stability score with HeLa Kyoto [1] (setting [5]) is -1.88; in the series with HeLa Kyoto [1] (cell cycle stage: mitosis), -2.79. Moreover, the “solubility in G1/S (log2)” value with HeLa Kyoto [2] was 0.73. Moreover, the results for the melting temperature in the series on HeLa Kyoto [3] (cell cycle stage: G1/S) and in the series with HeLa Kyoto [3] (cell cycle stage: mitosis) were 53.7 °C and 53.3 °C, respectively. The “solubility change mitosis (log2)” value in the series on HeLa Kyoto [4] came to 0.156.
On to “MWLAAAAPSLARRLLFLGPPPPPLLLLVFSRSSRRRLHSLGLAAMPEKRPFERLPADVSPINYSLCLKPDLLDFTFEGKLEAAAQVRQATNQIVMNCADIDIITASYAPEGDEEIHATGFNYQNEDEKVTLSFPSTLQTGTGTLKIDFVGELNDKMKGFYRSKYTTPSGEVRYAAVTQFEATDARRAFPCWDEPAIKATFDISLVVPKDRVALSNMNVIDRKPYPDDENLVEVKFARTPVMSTYLVAFVVGEYDFVETRSKDGVCVRVYTPVGKAEQGKFALEVAAKTLPFYKDYFNVPYPLPKIDLIAIADFAAGAMENWGLVTYRETALLIDPKNSCSSSRQWVALVVGHELAHQWFGNLVTMEWWTHLWLNEGFASWIEYLCVDHCFPEYDIWTQFVSADYTRAQELDALDNSHPIEVSVGHPSEVDEIFDAISYSKGASVIRMLHDYIGDKDFKKGMNMYLTKFQQKNAATEDLWESLENASGKPIAAVMNTWTKQMGFPLIYVEAEQVEDDRLLRLSQKKFCAGGSYVGEDCPQWMVPITISTSEDPNQAKLKILMDKPEMNVVLKNVKPDQWVKLNLGTVGFYRTQYSSAMLESLLPGIRDLSLPPVDRLGLQNDLFSLARAGIISTVEVLKVMEAFVNEPNYTVWSDLSCNLGILSTLLSHTDFYEEIQEFVKDVFSPIGERLGWDPKPGEGHLDALLRGLVLGKLGKAGHKATLEEARRRFKDHVEGKQILSADLRSPVYLTVLKHGDGTTLDIMLKLHKQADMQEEKNRIERVLGATLLPDLIQKVLTFALSEEVRPQDTVSVIGGVAGGSKHGRKAAWKFIKDNWEELYNRYQGGFLISRLIKLSVEGFAVDKMAGEVKAFFESHPAPSAERTIQQCCENILLNAAWLKRDAESIHQYLLQRKASPPTV [NPEPPS]”, for which the thermal stability score in the series on HeLa Kyoto [1] (setting [5]) is -0.503; with HeLa Kyoto [1] (cell cycle stage: mitosis) it was -1.51. The “solubility in G1/S (log2)” value in the series with HeLa Kyoto [2] amounted to 0.0254. The melting temperature was 53.9 °C with HeLa Kyoto [3] (cell cycle stage: G1/S) and 53.6 °C with HeLa Kyoto [3] (cell cycle stage: mitosis). The “solubility change mitosis (log2)” value with HeLa Kyoto [4] is -0.148.
